Measurements taken from article doi:10.1101/2022.05.07.491039 (bioRxiv, 2022).

T1: αE-catenin R551A (mouse, UniProt P26231 1-906, R551A)
T1 sequence: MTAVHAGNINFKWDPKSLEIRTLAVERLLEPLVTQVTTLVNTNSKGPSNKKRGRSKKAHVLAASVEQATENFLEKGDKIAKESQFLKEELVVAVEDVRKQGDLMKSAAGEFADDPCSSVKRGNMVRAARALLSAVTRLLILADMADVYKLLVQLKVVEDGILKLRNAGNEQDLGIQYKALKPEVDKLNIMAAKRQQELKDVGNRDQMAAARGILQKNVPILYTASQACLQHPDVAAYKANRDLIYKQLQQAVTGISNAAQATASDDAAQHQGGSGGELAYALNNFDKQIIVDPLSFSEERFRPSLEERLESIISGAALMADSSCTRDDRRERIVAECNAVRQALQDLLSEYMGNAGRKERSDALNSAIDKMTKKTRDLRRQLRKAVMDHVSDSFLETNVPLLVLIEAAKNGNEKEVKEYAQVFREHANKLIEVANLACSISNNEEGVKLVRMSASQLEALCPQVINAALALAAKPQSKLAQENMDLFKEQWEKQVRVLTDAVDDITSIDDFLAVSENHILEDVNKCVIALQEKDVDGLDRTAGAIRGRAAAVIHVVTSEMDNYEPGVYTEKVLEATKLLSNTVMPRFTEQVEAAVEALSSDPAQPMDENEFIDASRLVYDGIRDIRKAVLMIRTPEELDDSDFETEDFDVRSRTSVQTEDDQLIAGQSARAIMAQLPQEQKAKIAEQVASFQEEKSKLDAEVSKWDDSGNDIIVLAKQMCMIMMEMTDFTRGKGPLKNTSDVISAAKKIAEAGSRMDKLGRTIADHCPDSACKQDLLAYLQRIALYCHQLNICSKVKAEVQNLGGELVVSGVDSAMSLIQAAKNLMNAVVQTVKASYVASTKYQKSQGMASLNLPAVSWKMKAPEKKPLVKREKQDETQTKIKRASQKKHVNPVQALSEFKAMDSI

T2: full-length murine αE-catenin (mouse, UniProt P26231 1-906)
T2 sequence: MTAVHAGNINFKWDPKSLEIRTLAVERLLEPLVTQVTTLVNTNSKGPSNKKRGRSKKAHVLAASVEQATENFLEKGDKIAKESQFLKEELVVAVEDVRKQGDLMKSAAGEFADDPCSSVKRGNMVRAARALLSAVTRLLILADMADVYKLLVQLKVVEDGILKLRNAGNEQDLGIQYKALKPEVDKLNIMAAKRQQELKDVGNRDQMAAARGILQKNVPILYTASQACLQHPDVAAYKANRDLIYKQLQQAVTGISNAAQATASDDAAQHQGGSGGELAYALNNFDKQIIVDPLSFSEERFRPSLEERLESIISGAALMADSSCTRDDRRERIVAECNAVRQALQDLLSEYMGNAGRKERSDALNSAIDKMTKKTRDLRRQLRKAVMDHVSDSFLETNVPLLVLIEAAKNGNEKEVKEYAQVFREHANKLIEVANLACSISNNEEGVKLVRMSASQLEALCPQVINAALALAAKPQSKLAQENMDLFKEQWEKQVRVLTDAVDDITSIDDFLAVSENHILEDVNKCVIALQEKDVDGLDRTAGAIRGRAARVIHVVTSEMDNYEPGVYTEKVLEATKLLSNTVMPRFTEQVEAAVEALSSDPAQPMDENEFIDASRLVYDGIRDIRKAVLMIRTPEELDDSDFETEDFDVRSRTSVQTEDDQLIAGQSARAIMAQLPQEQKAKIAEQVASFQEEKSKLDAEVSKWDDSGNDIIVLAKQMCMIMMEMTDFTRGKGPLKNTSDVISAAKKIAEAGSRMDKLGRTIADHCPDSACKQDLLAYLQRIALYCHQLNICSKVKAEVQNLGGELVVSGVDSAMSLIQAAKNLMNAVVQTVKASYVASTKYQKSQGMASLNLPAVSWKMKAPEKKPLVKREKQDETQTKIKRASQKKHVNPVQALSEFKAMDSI

B1: β-catenin (natural protein)
chain: MATQADLMELDMAMEPDRKAAVSHWQQQSYLDSGIHSGATTTAPSLSGKGNPEEEDVDTSQVLYEWEQGFSQSFTQEQVADIDGQYAMTRAQRVRAAMFPETLDEGMQIPSTQFDAAHPTNVQRLAEPSQMLKHAVVNLINYQDDAELATRAIPELTKLLNDEDQVVVNKAAVMVHQLSKKEASRHAIMRSPQMVSAIVRTMQNTNDVETARCTAGTLHNLSHHREGLLAIFKSGGIPALVKMLGSPVDSVLFYAITTLHNLLLHQEGAKMAVRLAGGLQKMVALLNKTNVKFLAITTDCLQILAYGNQESKLIILASGGPQALVNIMRTYTYEKLLWTTSRVLKVLSVCSSNKPAIVEAGGMQALGLHLTDPSQRLVQNCLWTLRNLSDAATKQEGMEGLLGTLVQLLGSDDINVVTCAAGILSNLTCNNYKNKMMVCQVGGIEALVRTVLRAGDREDITEPAICALRHLTSRHQEAEMAQNAVRLHYGLPVVVKLLHPPSHWPLIKATVGLIRNLALCPANHAPLREQGAIPRLVQLLVRAHQDTQRRTSMGGTQQQFVEGVRMEEIVEGCTGALHILARDVHNRIVIRGLNTIPLFVQLLYSPIENIQRVAAGVLCELAQDKEAAEAIEAEGATAPLTELLHSRNEGVATYAAAVLFRMSEDKPQDYKKRLSVELTSSLFRTEPMAWNETADLGLDIGAQGEALGYRQDDPSYRSFHSGGYGQDALGMDPMMEHEMGGHHPGADYPVDGLPDLGHAQDLMDGLPPGDSNQLAWFDTDL

Tests used:
Assay in all cases: SEC
αE-catenin R551A = target: T1, αE-catenin R551A
[1] = target: T2, full-length murine αE-catenin
β-catenin = target: B1

Binder	binding result (αE-catenin R551A)	binding result [1]	binding result (β-catenin)
chicken vinculin D1 domain (aa 1-259) (domain or fragment) MPVFHTRTIESILEPVAQQISHLVIMHEEGEVDGKAIPDLTAPVSAVQAAVSNLVRVGKETVQTTEDQILKRDMPPAFIKVENACTKLVRAAQMLQADPYSVPARDYLIDGSRGILSGTSDLLLTFDEAEVRKIIRVCKGILEYLTVAEVVETMEDLVTYTKNLGPGMTKMAKMIDERQQELTHQEHRVMLVNSMNTVKELLPVLISAMKIFVTTKNTKSQGIEEALKNRNFTVEKMSAEINEIIRVLQLTSWDEDAWA	binds	–	–
B1	binds	binds	–
β-catenin 78-671 (domain or fragment) QVADIDGQYAMTRAQRVRAAMFPETLDEGMQIPSTQFDAAHPTNVQRLAEPSQMLKHAVVNLINYQDDAELATRAIPELTKLLNDEDQVVVNKAAVMVHQLSKKEASRHAIMRSPQMVSAIVRTMQNTNDVETARCTAGTLHNLSHHREGLLAIFKSGGIPALVKMLGSPVDSVLFYAITTLHNLLLHQEGAKMAVRLAGGLQKMVALLNKTNVKFLAITTDCLQILAYGNQESKLIILASGGPQALVNIMRTYTYEKLLWTTSRVLKVLSVCSSNKPAIVEAGGMQALGLHLTDPSQRLVQNCLWTLRNLSDAATKQEGMEGLLGTLVQLLGSDDINVVTCAAGILSNLTCNNYKNKMMVCQVGGIEALVRTVLRAGDREDITEPAICALRHLTSRHQEAEMAQNAVRLHYGLPVVVKLLHPPSHWPLIKATVGLIRNLALCPANHAPLREQGAIPRLVQLLVRAHQDTQRRTSMGGTQQQFVEGVRMEEIVEGCTGALHILARDVHNRIVIRGLNTIPLFVQLLYSPIENIQRVAAGVLCELAQDKEAAEAIEAEGATAPLTELLHSRNEGVATYAAAVLFRMSEDKPQDYK	–	binds	–
Mouse E-cadherin cytoplasmic domain (domain or fragment) not shown	–	–	binds
